B1: VB6-845-F-de-bouganin (Fab)
chain 1: HHHHHHEVQLVQSGPGLVQPGGSVRISCAASGYTFTNYGMNWVKQAPGKGLEWMGWINTYTGESTYADSFKGRFTFSLDTSASAAYLQINSLRAEDTAVYYCARFAIKGDYWGQGTLLTVSSASTKGPSVFPLAPSSKSTSGGTAALGCLVKDYFPEPVTVSWNSGALTSGVHTFPAVLQSSGLYSLSSVVTVPSSSLGTQTYICNVNHKPSNTKVDKKVEPKSC
chain 2: DIQMTQSPSSLSASVGDRVTITCRSTKSLLHSNGITYLYWYQQKPGKAPKLLIYQMSNLASGVPSRFSSSGSGTDFTLTISSLQPEDFATYYCAQNLEIPRTFGQGTKVELKRTVAAPSVFIFPPSDEQLKSGTASVVCLLNNFYPREAKVQWKVDNALQSGNSQESVTEQDSKDSTYSLSSTLTLSKADYEKHKVYACEVTHQGLSSPVTKSFNRGECTRHRQPRGWEQLYNTVSFNLGEAYEYPTFIQDLRNELAKGTPVCQLPVTLQTIADDKRFVLVDITTTSKKTVKVAIDVTDVYVVGYQDKWDGKDRAVFLDKVPTVATSKLFPGVTNRVTLTFDGSYQKLVNAAKADRKALELGVNKLEFSIEAIHGKTINGQEAAKFFLIVIQMVSEAARFKYIETEVVDRGLYGSFKPNFKVLNLENNWGDISDAIHKSSPQCTTINPALQLISPSNDPWVVNKVSQISPDMGILKFKSSK
notes: also called VB6-845L-F-de-bouganin
B2: VB6-845-F1R-de-bouganin (Fab)
chain 1: B1 chain 1
chain 2: DIQMTQSPSSLSASVGDRVTITCRSTKSLLHSNGITYLYWYQQKPGKAPKLLIYQMSNLASGVPSRFSSSGSGTDFTLTISSLQPEDFATYYCAQNLEIPRTFGQGTKVELKRTVAAPSVFIFPPSDEQLKSGTASVVCLLNNFYPREAKVQWKVDNALQSGNSQESVTEQDSKDSTYSLSSTLTLSKADYEKHKVYACEVTHQGLSSPVTKSFNRGECTRHRRKRSVYNTVSFNLGEAYEYPTFIQDLRNELAKGTPVCQLPVTLQTIADDKRFVLVDITTTSKKTVKVAIDVTDVYVVGYQDKWDGKDRAVFLDKVPTVATSKLFPGVTNRVTLTFDGSYQKLVNAAKADRKALELGVNKLEFSIEAIHGKTINGQEAAKFFLIVIQMVSEAARFKYIETEVVDRGLYGSFKPNFKVLNLENNWGDISDAIHKSSPQCTTINPALQLISPSNDPWVVNKVSQISPDMGILKFKSSK
notes: also called F1R linker construct
B3: VB6-845-CB1-CD-de-bouganin (Fab)
chain 1: B1 chain 1
chain 2: DIQMTQSPSSLSASVGDRVTITCRSTKSLLHSNGITYLYWYQQKPGKAPKLLIYQMSNLASGVPSRFSSSGSGTDFTLTISSLQPEDFATYYCAQNLEIPRTFGQGTKVELKRTVAAPSVFIFPPSDEQLKSGTASVVCLLNNFYPREAKVQWKVDNALQSGNSQESVTEQDSKDSTYSLSSTLTLSKADYEKHKVYACEVTHQGLSSPVTKSFNRGECQGVGFLGTQFFYNTVSFNLGEAYEYPTFIQDLRNELAKGTPVCQLPVTLQTIADDKRFVLVDITTTSKKTVKVAIDVTDVYVVGYQDKWDGKDRAVFLDKVPTVATSKLFPGVTNRVTLTFDGSYQKLVNAAKADRKALELGVNKLEFSIEAIHGKTINGQEAAKFFLIVIQMVSEAARFKYIETEVVDRGLYGSFKPNFKVLNLENNWGDISDAIHKSSPQCTTINPALQLISPSNDPWVVNKVSQISPDMGILKFKSSK
notes: also called CB1-CD construct

Assays:
[1] = biological target: T1, Ep-CAM (Epithelial Cell Adhesion Molecule) (UniProt P16422 24-314, limits assumed); test: flow cytometry on CAL 27 cells (Ep-CAM-positive)
T1 construct: whole, on cells; Endogenous antigen on tumour cell lines; also called 17-1A; KSA
T1 sequence (looked up): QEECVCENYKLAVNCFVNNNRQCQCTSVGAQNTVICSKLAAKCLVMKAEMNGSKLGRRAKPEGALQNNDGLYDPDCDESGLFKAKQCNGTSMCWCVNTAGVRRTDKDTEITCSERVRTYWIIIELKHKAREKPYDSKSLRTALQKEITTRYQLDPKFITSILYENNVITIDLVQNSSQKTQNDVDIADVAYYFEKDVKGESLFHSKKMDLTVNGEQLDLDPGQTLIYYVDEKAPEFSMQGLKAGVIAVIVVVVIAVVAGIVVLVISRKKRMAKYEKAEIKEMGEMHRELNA

[2] = biological target: T1, Ep-CAM (Epithelial Cell Adhesion …); test: flow cytometry on NIH:OVCAR-3 cells (Ep-CAM-positive)
[3] = biological target: T1, Ep-CAM (Epithelial Cell Adhesion …); test: flow cytometry on CAL 27 cells (Ep-CAM-positive); one representative experiment
[4] = biological target: T1, Ep-CAM (Epithelial Cell Adhesion …); test: flow cytometry on NIH:OVCAR-3 cells (Ep-CAM-positive); one representative experiment

Row | Binder | Median Fold (MF) increase [1] [fold] | Median Fold (MF) increase [2] [fold] | Median Fold (MF) increase [3] [fold] | Median Fold (MF) increase [4] [fold]
1 | B1 | 63.6 | 130 |  | 
2 | B2 | 55 | 112 |  | 
3 | B3 |  |  | 68 | 110

Source: patent US20100215670A1 (published 2010)
